Laboratory results from patent publication US20070185028A1, “Compositions and methods for treatment of protein misfolding and protein aggregation diseases” (priority 2004, published 2007).

How the values were obtained:
γD crystallin = target: T1, γD crystallin (Homo sapiens, UniProt P07320); assay: γD crystallin Thioflavin T fluorescence (fibrillization); assay type: biochemical; details: 1:1 γD crystallin:peptide; for Δfluorescence (γD crystallin): Thioflavin T, 50° C., 72 hours
T1 sequence (P07320 2-174): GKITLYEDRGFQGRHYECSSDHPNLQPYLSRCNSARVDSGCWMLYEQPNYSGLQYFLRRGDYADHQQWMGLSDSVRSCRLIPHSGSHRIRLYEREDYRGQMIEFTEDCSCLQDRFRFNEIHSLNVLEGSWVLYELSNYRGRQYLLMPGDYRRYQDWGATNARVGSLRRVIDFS
Procedure: γD crystallin Thioflaviin T fluorescence. γD crystallin fibrils were formed in a similar way to that of γ crystalline. Meehan et al., J Biol Chem 279: 3413-3419, 2004. Peptides were dissolved to 9.1 mM in TFE and diluted to 0.91 mM stock solutions in 10% TFE, pH 2.0. 3.5 mg of Thioflavin T was dissolved in 100 μl of 50 mM Glycine pH 8.5. A stock solution of 1 mg/ml (0.22 mM) Aβ was prepared. 20 μl Aβ, 5 μl chaperone, 2 μl Thioflavin T was mixed with 73 μl 10% TFE, pH 2.0. Fluorescence was read using a Beckman Coultier DTX 880 multimode detector. Samples were heated at 50° C. for 72 hours and fluorescence was read again.
The fibrillization of γD crystallin was measured as fluorescence of the fluorescent dye Thioflavin T from solutions containing 1:1 monomeric molar ratio of γD crystallin:peptide. In the absence of fibrils Thioflavin T had little or no fluorescence. The fluorescence of the Thioflavin T bound to γD crystallin fibrils in the absence of any other molecule after 72 hrs was set to 100%. […] Fibril formation=ΔfluorescenceγD crystallin (with chaperone)*100/ΔfluorescenceγD crystallin (without chaperone).

[1] = target: T2, porcine citrate synthase (CS) (Sus scrofa, UniProt P00889); assay: αB crystallin protein pin array with citrate synthase; assay type: binding; details: CS as target protein in the pin array
T2 construct: purchased Roche Diagnostics, IN 103 381
T2 sequence (P00889 28-464): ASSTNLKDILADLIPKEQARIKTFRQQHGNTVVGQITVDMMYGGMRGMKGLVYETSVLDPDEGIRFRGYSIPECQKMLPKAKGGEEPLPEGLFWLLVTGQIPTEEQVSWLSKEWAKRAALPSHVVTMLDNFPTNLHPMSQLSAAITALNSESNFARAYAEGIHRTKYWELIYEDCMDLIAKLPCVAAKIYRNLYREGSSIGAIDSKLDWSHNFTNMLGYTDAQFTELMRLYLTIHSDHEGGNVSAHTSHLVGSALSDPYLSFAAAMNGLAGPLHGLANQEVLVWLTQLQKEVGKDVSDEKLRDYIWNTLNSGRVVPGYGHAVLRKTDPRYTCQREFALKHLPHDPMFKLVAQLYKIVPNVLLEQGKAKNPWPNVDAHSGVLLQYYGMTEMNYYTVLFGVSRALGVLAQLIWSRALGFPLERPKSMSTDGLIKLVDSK
Description: Synthesis of Pins, binding and detection of peptides binding to ligand proteins. The αB crystallin protein pin array was used to measure the interaction between peptides and chaperone target proteins including bovine βH crystallin, human γD crystallin, equine alcohol dehydrogenase (ADH) and porcine citrate synthase (CS) as described (FIG. 12). Ghosh and Clark, Protein Sci 14: 684-95, 2005.
Refer to the methods section for detailed protocols. The absorbance corresponding to the blue coloration in each well was measured at λ=450 nm and plotted against the amino acid sequence of the corresponding peptide in that well (FIGS. 13 and 14). Wells containing peptides that have strong interactions with target proteins are dark blue and wells containing peptides that have weak or no interaction with target proteins are light blue or clear.
The purity of the target proteins used in the pin array assays, bovine βH crystallin, human γD crystallin, equine alcohol dehydrogenase (ADH) and porcine citrate synthase (CS) were determined to be >90% by SDS-PAGE. In addition, primary antibodies for each target protein were specific to that target protein and consequently contaminating proteins that may bind to the peptides will not be detected. Eighty-four sequential and overlapping peptide fragments corresponding to residues 1-175 of human αB crystallin were synthesized employing a simultaneous peptide synthesis strategy developed by Geysen, called Multipin Peptide Synthesis (Mimotopes, San Diego, Calif.). Geysen, Southeast Asian J Trop Med Public Health 21: 523-33, 1990; Chin et al., J Org Chem 62: 538-539, 1997. Peptides were immobilized on derivatized polyethylene pins arranged in a microtiter ELISA plate format. Each peptide was eight amino acids in length and consecutive peptides were offset by two amino acids. All peptides were bound covalently to the surface of the plastic pins. The first peptide was 1MDIAIHHP8 and the last peptide was 168PAVTAAPK175 for human αB crystallin.
Ghosh and Clark, Protein Sci 14: 684-95, 2005. […] The intensity of the blue color in the wells was measured at 450 nm using an ELISA plate-reader (BioTek, Winooski, Vt.). The intensity of the blue color (plotted on the X-axis) was a measure of the interaction between αB crystallin peptides (plotted on the Y-axis) and target proteins. To measure the effect of temperature on the interactions between interactive peptides and the target proteins, the target proteins were heated in a water-bath at 45° C. for fifteen minutes prior to use. Pin arrays are unable to differentiate between monomers, dimers or oligomers of target proteins that exist in solution. Instead, pin arrays are very sensitive detectors of interactions between individual peptides and the entire population (monomers, dimers or oligomers) of specific target proteins that may exist in solution under specific conditions. Each target protein was assayed two to five times. A single pin array was used for all experiments and no change in interactions was observed after more than thirty repetitions. The last three peptides of the protein pin array, 163REEKPAVT170, 165EKPAVTAA172, 167PAVTAAPK174, correspond to the epitope (163REEKPAVTAAPKK175) recognized by the primary antibody for human αB crystallin. A positive reaction is observed for these three peptides in the absence of human αB crystallin as the ligand due to direct binding of the anti-human αB crystallin antibody to these three peptides. The loss of efficiency for the pin array was measured using this assay. The loss of efficiency for the pin array was determined to be <5% by after more than 30 assays.
The pattern of absorbance at λ=450 nm when αB crystallin peptides were assayed with unheated and pre-heated CS was similar to the absorbance pattern obtained with unheated and pre-heated βH/γD crystallin and ADH (FIG. 18). […]

Row | Sequence | Δfluorescence (γD crystallin) (γD crystallin) | absorbance at 450 nm, interaction with CS [1] | effect on the fibrillization of γD crystallin (ranking) (γD crystallin; 72 hrs)
1 | DRFSVNLDVKHFS | 661,038,176 | – | –
2 | ERTIPITRE | 611,017,728 | – | –
3 | HGKHEERQDE | 734,394,240 | – | –
4 | LTITSSLSSDGV | 675,352,992 | – | –
5 | STSLSPFYLRPPSFLRAP | 606,290,176 | – | strongest effect

Further lines, results first:

Row | Δfluorescence (γD crystallin) (γD crystallin) | absorbance at 450 nm, interaction with CS [1] | effect on the fibrillization of γD crystallin (ranking) (γD crystallin; 72 hrs) | Sequence
6 | – | absorbance maxima | – | FSVNLDVK [Peptide 38]
7 | – | absorbance maxima | – | LTITSSLS [Peptide 66]
8 | – | absorbance maxima | – | WIRRPFFP [Peptide 5]
